# Source: patent US7667100B2, “Nucleic acid compositions conferring herbicide resistance” (Dow AgroSciences LLC, priority 2002, dated 2010)
# Columns and labels:
# [1] = test system: Nicotiana benthamiana; experiment: Evaluation of auxin tolerance in greenhouse plants inoculated with clone transcript and sprayed with herbicide; assay type: in vivo
# Experimental: All primary hit sequences were evaluated for tolerance in larger plants, maintained under greenhouse conditions as described below.
# Plant Growth and Maintenance. Nb seeds were sown in 6.5 cm pots filled with Redi-earth medium (The Scotts Company, Marysville, Ohio) pre-wetted by injection of Hoagland's fertilizer solution [all from the Scotts Company: 147 kg Peters Excel 15-15-15 Cal-Mag, 68 kg Peters Excel 15-0-0 Cal-Lite (15% Ca), and 45 kg Peters Excel 10-0-0 MagNitrate (10% Mg) in hot tap water to 596 L total volume] into irrigation water at a ratio of 200:1, using an injection system (H. E. Anderson, Muskogee Okla,). Seededpots were placed in the greenhouse for 1 day, transferred to a 27° C. germination chamber (Carolina Greenhouses, Kinston, N.C.) for 2 days, and then returned to the greenhouse. Shade curtains (33% transmittance) were used in the greenhouse to reduce solar intensity. To ensure 16 hour day length and supplement solar radiation on overcast days, artificial lighting consisting of a 1:1 mixture of metal halide and high pressure Sylvania sodium lamps was used, delivering approximately 220 μmol/m^2/s. Evaporative cooling and steam heat were used to maintain a daytime set point of 27° C. and a nighttime temperature of 22° C. At approximately 7 days post sowing (dps), seedlings were thinned to one seedling per pot and at 17 to 21 dps, the pots were spaced farther apart to accommodate plant growth. Plants were watered with Hoagland's solution as required. Following inoculation, waste irrigation water was collected and treated with 0.5% sodium hypochlorite for 10 minutes to neutralize any viral contamination before discharging into the municipal sewer.
# Plant Inoculation. For each clone, 50 test plants as well as 10 GFP and bar (Thompson et al., EMBO J. 6:2519 [19870]) negative control plants were inoculated as follows: 2.0 mL of inoculum per clone were prepared by combining equal volumes of NCAP transcript and FES buffer [0.1 M glycine, 0.06 M K2HPO4, 1% sodium pyrophosphate, 1% diatomaceous earth (Sigma Chemical Company, St. Louis, Mo.), and either 1% silicon carbide (Aldrich Chemical Company, Milwaukee, Wis.), or 1% Bentonite (Sigma Chemical Company, St. Louis, Mo.)]. The inoculum was applied to each plant at 17 days post sowing by pipetting onto the upper surface of leaves 3 and 4 (˜20 μL per leaf). The inoculum was then spread across each leaf surface using a 3″ cotton tipped applicator (Calapro Swab, Fisher Scientific, Pittsburgh, Pa.) and a gloved finger to support the leaf. Following inoculation the plants were misted with deionized water.
# Infection Scoring. At 8 days post inoculation (dpi), the plants were visually examined and a numerical score was assigned to each plant to indicate the extent of viral infection symptoms: 0=no infection, 1=possible infection, 2=infection symptoms limited to leaves <50-75% fully expanded, 3=typical systemic infection, 4=atypically severe infection, often accompanied by moderate to severe wilting and/or necrosis. Plants receiving an infection rating of 0, 1, or 4 were discarded.
# Herbicide spraying. At 9 dpi, the well infected plants (infection score of 3, sometimes 2) were divided into 3 treatment groups. Group 1, to be sprayed with solvent only, contained 4 plants per test clone (2 plants per negative control) and Groups 2 and 3, to be treated with 13 or 40 g ae/ha, respectively, each consisted of 12 test plants per clone and 2 plants per negative control. […]
# [2] = test system: Nicotiana benthamiana; experiment: Cross-resistance testing against six auxin compounds (greenhouse); assay type: in vivo
# Excerpt: Six compounds, representing five classes of auxin chemistry, were selected for testing the extent of auxinic tolerance of five hit sequences (129965 (SEQ ID NO:10), 130213 (SEQ ID NO: 14), 130294 (SEQ ID NO:360), 130994 (SEQ ID NO:361), and 129870 (SEQ ID NO:359)). The compounds included the following: • 1) quinclorac (BASF Corp., Research Triangle, N.C.) • 2) (2,4-dichlorophenoxy) acetic acid (Dow AgroSciences, Indianapolis, Ind.) • 3) dicamba (Monsanto, St. Louis, Mo.) • 4) benazolin (AgrEvo USA Company, Wilmington, Del.) • 5) picloram (Dow AgroSciences, Indianapolis, Ind.) • 6) 4-amino-3,6-dichloropyridine-2-carboxylic acid (Dow AgroSciences, Indianapolis, Ind.) Compound #6 served as a positive control, as these five sequences were identified for their herbicide tolerant function using this auxin (see Example 9). Compound #1 represents the quinoline carboxylic acid chemical family, #2 is in the phenoxy carboxylic acid class, #3 is benzoic acid chemistry, #4 is unique to any currently defined class, and #5 is in the same family as the positive control, pyridine carboxylic acids.
# The protocol was essentially the same as that described in Example 9 for greenhouse evaluations. However, an individual experiment consisted of 200 test plants plus 35 GFP and 35 bar negative control plants inoculated per clone. […] Two doses per auxin were tested, with as many as 12 well-infected test plants and 2 of each of the negative controls per dose.
# The six auxin solutions were prepared by dissolving solid compound in General Purpose Solvent (GPS: 97%DMSO: 3% acetone) to achieve the following spray rates (g ae/ha) when using the spray applicator and parameters outlined in Example 9: Compound #1) 200; 2) 42; 3) 64; 4) 200; 5) 10; 6) 10. From each of these solutions, a portion was diluted with an equal volume of GPS, resulting in 1× (“high dose”) and ½× (“low dose”) concentrations for spraying. Before spray application, each auxin solution was mixed with an equal volume of diluent containing surfactants for effective penetration. The diluent was prepared as follows: 420 mL GPS, 460 mL DI water, 120 mL isopropyl alcohol, 10.167 mL Agri-Dex (Helena Chemical Co., Memphis, Tenn.), and 0.167 mL Triton X-155 (Sigma Chemical Co., St. Louis, Mo.). In addition to the 200 and 100 g ae/ha rates tested for Compound #4 (benazolin), a concentration of 250 g ae/ha was also formulated as described above and tested.
# Plants were sprayed and evaluated as described in Example 9. FIG. 7 summarizes the sequences tested and the highest dose of the compounds against which tolerance was observed. […] Results are reported in FIG. 7 for each of the trials with each construct.
# The positive control (Compound #6) was formulated differently in this set of evaluations from that described in Example 9, for consistency in the solvent/surfactant background from which to compare the activity of the individual sequences against each auxin. Thus, the spray rate used for evaluation was lower than previous experiments, 5 vs. 13 g ae/ha. The need to lower the dose with this formulation to prevent total chlorosis and/or necrosis was likely due to the addition of DMSO, Agri-Dex, and Triton X-155 which were not used in Example 9.
molecule,measurement,setting,value
"130213: Poppy cDNA clone; auxin tolerance hit sequence (nucleic acid, Poppy) DNA: TTAATTAAGTCGACGAATTCATATGAAGAAATGGTTGAATTTATGGAAAAAGTAACAACAAATGTTGAATCAGAGGAACTTTCAGTTGAAGAGAGAAATTTATTGTCAGTTGCTTACAAAAATGTGATTGGTGCACGCAGAGCATCATGGAGAATTATTTCATCAATTGAACAGAAAGAAGAAAGCCGTGGTAACGAAGAGAATGTATTGACCATTCGTGATTATAGATCTAAGATTGAAACTGAACTTTCAGGCATCTGTGATGGGATTTTGAAGTTGCTTGATACTAGATTGATTCCATCTGCATCTTCTGGTGATTCTAAAGTGTTTTATTTGAAAATGAAAGGTGATTATCATCGTTATTTGGCTGAGTTTAAAACTGGTACCGAAAGGAAAGAAGCTGCTGAAAGTACCCTTTCTGCTTATAAATCTGCTCAGGATATCGCAACTGCTGAACTTGCACCCACTCACCCAATCAGGCTGGGACTTGCTCTTAACTTTCTCCGTCTTTTACTACGAGATCTTGAATTCTCCTGCCGTGCTTGTAATCTCGCCAAACAGGCATTTGATGAGGCTATCGCGGAGCTGGATACCCTTGGTGAAGAATCATACAAAGACAGCACTCTAATCATGCAGCTCCTTCGTGACAATCTTACTCTGTGGACCTCCGACATGCAGGATGATGGTGCAGATGAAATTAAAGAAGCATCCAAGCCTGAAGATGAACATTAATGATAGTTTGTCTGCCACATTTAGGATCTTACCTCCTCTCAGTTTGTTTTATTAAAAGGAGAAGGTGCTTTCTTGGTACACAACTCCTCCAAGTCTACTATTAATTATTAAGGAGTTTAGGGTGGGTACTGTTAGTTTGTCATTCTTCTTATCCTTTGTGCTCGTCTTTTCCTATCTTAATTCTTCTCTTAAAAGAGTTTGAAGTTATATGTTTATCTGAATCTGTGTGGGAACTCCGTTTTATCTAAATTATCTTTTAAGATGACGATAAAAAAAAAAAAAAAAAAA",plants demonstrating auxin tolerance,"[1]; 14 days after treatment (dat), 130213 homolog trial, tolerance = 25% injury or less after 13 or 40 g ae/ha 4-amino-3,6-dichloropyridine-2-carboxylic acid",17%
same,reproducibility of auxin tolerance from Trial #1 to Trial #2,"[1]; greenhouse, 30% or more of test population tolerant by 14 dat",reproducible auxin tolerance
same,tolerance to picloram (Compound #5),[2]; 10 g ae/ha and 1/2x,additional tolerance to picloram and quinclorac when the 35% injury tolerance criterion was used
same,"tolerance to positive control 4-amino-3,6-dichloropyridine-2-carboxylic acid (Compound #6)",[2]; 10 g ae/ha and 1/2x (5 g ae/ha),tolerance consistently occurred at the lower threshold (25% injury or less)
same,tolerance to dicamba (Compound #3),[2]; 64 g ae/ha and 1/2x,strongly effective
same,tolerance to quinclorac (Compound #1),[2]; 200 g ae/ha and 1/2x,additional tolerance to picloram and quinclorac when the 35% injury tolerance criterion was used
same,extent of cross-resistance to the six auxin compounds,"[2]; two trials, two doses per auxin, thresholds 25% or 35% injury or less",tolerance was observed against four compounds
